Test [1] addresses HLA-B*07:02. As to the kind of experiment: IEDB peptide-MHC binding, purified MHC/competitive/fluorescence; ≥ and ≤ were set here for values at or beyond the usual limits of such assays. The following applies: source organism: Zaire ebolavirus.
Test [2] has as its target HLA-A*02:01. The description is as above. The following applies: source organism: Zaire ebolavirus.
In a further test the target is HLA-A*29:02. Kind of test: IEDB peptide-MHC binding, purified MHC/direct/fluorescence; filed as Kd, often an IC50 or EC50 that approximates it; ≥ and ≤ were set here for values at or beyond the usual limits of such assays.
Another test deals with HLA-A*02:12. The description is as above.
The target in test [3] is HLA-A*03:01. The test is described as above.
For a further test, the target named is HLA-A*02:11. The description is as above.
The target of another test is HLA-A*02:03. The test is described as above.
Another test concerns the target HLA-A*68:02. The test is described as above. The following applies: source organism: Zaire ebolavirus.
A further test concerns the target HLA-A*02:16. The test is described as above.
Another test deals with HLA-A*02:19. The test is described as above.
The target of a further test is HLA-A*24:03. The test is described as above.
Test [4] addresses HLA-B*51:01. As to the kind of experiment: IEDB peptide-MHC binding, purified MHC/competitive/fluorescence; filed as Kd, often an IC50 or EC50 that approximates it; ≥ and ≤ were set here for values at or beyond the usual limits of such assays.
For test [5], the target named is HLA-B*39:01. The test is described as above. The conditions noted are these: source organism: Zaire ebolavirus.
The target in the next test is HLA-A*26:01. The test is described as above.
The target in test [6] is HLA-B*57:01. Described as above.
The target of test [7] is HLA-B*18:01. The test is described as above. The following applies: source organism: Zaire ebolavirus.
Test [8] concerns the target HLA-B*15:01. The description is as above.
The next test concerns the target HLA-B*27:03. Described as above.
Another test addresses HLA-B*15:17. Described as above.
Test [9] has as its target HLA-A*02:01. The description is as above.
For test [10], the target named is HLA-A*69:01. The description is as above. The following applies: source organism: Zaire ebolavirus.
The target in test [11] is HLA-B*46:01. Described as above.
For another test, the target named is HLA-A*11:01. As to the kind of experiment: IEDB peptide-MHC binding, purified MHC/competitive/fluorescence; ≥ and ≤ were set here for values at or beyond the usual limits of such assays.
For test [12], the target named is HLA-A*03:01. Described as above.
The next test has as its target HLA-B*40:01. Kind of test: IEDB peptide-MHC binding, purified MHC/direct/fluorescence; filed as Kd, often an IC50 or EC50 that approximates it; ≥ and ≤ were set here for values at or beyond the usual limits of such assays. The following applies: source organism: Orthohantavirus negraense.
In test [13] the target is HLA-B*51:01. Described as above. The conditions noted are these: source organism: Yersinia pestis.
The target of test [14] is HLA-B*07:02. The test is described as above.
The target of test [15] is HLA-B*15:01. The description is as above.
Another test concerns the target HLA-A*31:01. The description is as above. The conditions noted are these: source organism: Mycobacterium tuberculosis.
The target of a further test is HLA-B*58:01. The description is as above. The conditions noted are these: source organism: Mycobacterium tuberculosis.
Another test has as its target HLA-B*48:01. The test is described as above. The following applies: source organism: Mycobacterium tuberculosis.
Test [16] has as its target HLA-B*39:01. Described as above. The conditions noted are these: source organism: Mycobacterium tuberculosis.
In the next test the target is HLA-A*01:01. The description is as above. The following applies: source organism: Mycobacterium tuberculosis.
Test [17] addresses HLA-B*57:01. The description is as above. The following applies: source organism: Mycobacterium tuberculosis.
In test [18] the target is HLA-B*18:01. The test is described as above. The following applies: source organism: Mycobacterium tuberculosis.
A further test concerns the target HLA-B*27:05. The description is as above. The following applies: source organism: Mycobacterium tuberculosis.
For a further test, the target named is HLA-B*44:02. The description is as above. The following applies: source organism: Mycobacterium tuberculosis.
Test [19] deals with HLA-A*69:01. Described as above. The following applies: source organism: Mycobacterium tuberculosis.
Test [20] addresses HLA-B*46:01. The test is described as above. The conditions noted are these: source organism: Mycobacterium tuberculosis.
The next test addresses HLA-A*24:02. Kind of test: IEDB peptide-MHC binding, purified MHC/competitive/fluorescence; ≥ and ≤ were set here for values at or beyond the usual limits of such assays. The conditions noted are these: source organism: Zaire ebolavirus.
In test [21] the target is HLA-B*15:01. Described as above. The conditions noted are these: source organism: Zaire ebolavirus.
Where [22] appears, read: source organism: Zaire ebolavirus.
Where [23] appears, read: source organism: Convict Creek 107 virus.
[24] abbreviates: source organism: Orthohantavirus sinnombreense.
[25] abbreviates: source organism: Mycobacterium tuberculosis.
The mark [26] stands for this setting: source organism: Vaccinia virus WR.
The mark [27] stands for this setting: source organism: Vaccinia virus Copenhagen.

Bounds are passed on as bounds.

One may read the IC50 as the concentration that gives 50% inhibition. Read a low IC50 as higher potency. For KVSGTGPCA, the figures for the IC50 with HLA-B*07:02 [1] and in the test with HLA-A*02:01 [2] were not below 96.8 µM and not below 118 µM, respectively.
Broadly, the Kd is the constant that tells how readily two partners part at equilibrium. The low end stands for higher affinity, the high end for lower affinity. Take AFHQLVQVI: the Kd with HLA-A*29:02 (setting [22]), with HLA-A*02:12 (setting [22]), in the test with HLA-A*03:01 [3] (setting [22]), in the test with HLA-A*02:11 (setting [22]), in the test with HLA-A*02:03 (setting [22]) and with HLA-A*68:02 was not below 20 µM throughout. For the same sequence, the Kd with HLA-A*02:16 (setting [22]) was not below 20 µM; with HLA-A*02:19 (setting [22]), not below 20 µM; with HLA-A*24:03 (source organism: Reston ebolavirus - Reston) it was 0.0021 µM; with HLA-B*51:01 [4] (setting [22]) it was not below 20 µM; with HLA-B*39:01 [5], not below 20 µM; with HLA-A*26:01 (setting [22]), not below 20 µM. The dissociation constant Kd in the test with HLA-B*57:01 [6] (setting [22]), with HLA-B*18:01 [7], in the test with HLA-B*15:01 [8] (setting [22]), in the test with HLA-B*27:03 (setting [22]), with HLA-B*15:17 (setting [22]) and with HLA-A*02:01 [9] (setting [22]) was not below 20 µM throughout. The Kd with HLA-A*69:01 [10] and in the test with HLA-B*46:01 [11] (setting [22]) was not below 20 µM each time.
Consider HHAYQGDYK, for which the half-inhibitory concentration (IC50) was not below 70.5 µM with HLA-A*11:01 (setting [22]) and 46 µM with HLA-A*03:01 [12] (setting [22]).
Turning to TEFFMSRKL, the dissociation constant (Kd) with HLA-A*29:02 (setting [23]) was not below 20 µM; in the test with HLA-B*40:01, 0.0014 µM; with HLA-A*02:12 (setting [23]), not below 20 µM; with HLA-A*03:01 [3] (setting [23]), not below 20 µM; with HLA-A*02:11 (setting [23]), not below 20 µM; with HLA-A*02:03 (setting [23]) it was not below 20 µM. Besides, the Kd with HLA-A*02:16 (setting [23]), with HLA-A*02:19 (setting [23]), in the test with HLA-A*24:03 (setting [23]), in the test with HLA-B*51:01 [4] (setting [24]), with HLA-A*26:01 (setting [24]) and with HLA-B*57:01 [6] (setting [24]) was not below 20 µM in each case. For the same sequence, the dissociation constant Kd with HLA-B*15:01 [8] (setting [24]), with HLA-B*27:03 (setting [24]), in the test with HLA-B*15:17 (setting [24]), with HLA-A*02:01 [9] (setting [24]) and in the test with HLA-B*46:01 [11] (setting [24]) was not below 20 µM in each case.
As to LPLEFWQAW, the equilibrium dissociation constant (Kd) with HLA-B*51:01 [13] is not below 20 µM; in the test with HLA-B*07:02 [14] (source organism: Yersinia pestis) it was 0.235 µM; in the test with HLA-B*15:01 [15] (source organism: Yersinia enterocolitica subsp. enterocolitica 8081), not below 20 µM.
In the case of QQDTNSAGL, the equilibrium dissociation constant (Kd) in the test with HLA-A*29:02 (setting [25]) was not below 20 µM; with HLA-A*31:01, not below 20 µM; with HLA-B*58:01 it was not below 20 µM; in the test with HLA-A*03:01 [3] (setting [25]), not below 20 µM; in the test with HLA-B*48:01 it was not below 20 µM; with HLA-B*39:01 [16] it was 0.301 µM. In addition, the equilibrium dissociation constant (Kd) with HLA-A*01:01, with HLA-B*57:01 [17], with HLA-B*18:01 [18], in the test with HLA-B*27:05, with HLA-B*07:02 [14] (setting [25]) and in the test with HLA-B*15:01 [15] (setting [25]) was not below 20 µM throughout. Besides, the Kd with HLA-B*44:02, with HLA-A*69:01 [19] and in the test with HLA-B*46:01 [20] was not below 20 µM throughout.
Regarding IVKTVLDHI, the figures for the concentration for half-maximal inhibition (IC50) with HLA-A*24:02, with HLA-B*07:02 [1] and in the test with HLA-A*02:01 [2] were 6.71 µM, not below 170 µM and not below 91.6 µM, respectively.
Consider QSVGHMMVI, for which the half-inhibitory concentration (IC50) with HLA-A*24:02 is 3.77 µM; with HLA-B*07:02 [1] it was 34.5 µM; in the test with HLA-B*15:01 [21] it was not below 143 µM; with HLA-A*02:01 [2] it was 4.89 µM.
As to KGYVVSRRG, the IC50 in the test with HLA-A*03:01 [12] (setting [26]) is not below 102 µM.
As to AVIRANNNR, the IC50 with HLA-A*11:01 (setting [26]) stood at 2.16 µM; in the test with HLA-A*03:01 [12] (setting [26]), 5.9 µM.
With GHGFRFEVK, the 50% inhibitory concentration (IC50) with HLA-A*11:01 (setting [22]) is 3.17 µM; with HLA-A*03:01 [12] (setting [22]), 6.42 µM.
In the case of LFPQLSAIA, the IC50 with HLA-A*24:02 was 13.9 µM; with HLA-B*07:02 [1] it was not below 142 µM; in the test with HLA-A*02:01 [2], 32.7 µM.
Regarding TKITFALKK, the IC50 with HLA-A*11:01 (setting [27]) is 11.1 µM; with HLA-A*03:01 [12] (setting [27]), 39.6 µM.

The record behind these values is the Immune Epitope Database (IEDB).
